From patent publication US20210163614A1 (GMAX BIOPHARM, published 2021) come the findings set out here.

Changes are numbered by the printed parent chain.

In assay [1] the target is T1, human APJ (apelin receptor) (human, UniProt P35414 1-380).
T1 construct: Expressed on the membrane of stably transfected CHO-DHFR- cells; also called hAPJ; APJ receptor
T1 sequence: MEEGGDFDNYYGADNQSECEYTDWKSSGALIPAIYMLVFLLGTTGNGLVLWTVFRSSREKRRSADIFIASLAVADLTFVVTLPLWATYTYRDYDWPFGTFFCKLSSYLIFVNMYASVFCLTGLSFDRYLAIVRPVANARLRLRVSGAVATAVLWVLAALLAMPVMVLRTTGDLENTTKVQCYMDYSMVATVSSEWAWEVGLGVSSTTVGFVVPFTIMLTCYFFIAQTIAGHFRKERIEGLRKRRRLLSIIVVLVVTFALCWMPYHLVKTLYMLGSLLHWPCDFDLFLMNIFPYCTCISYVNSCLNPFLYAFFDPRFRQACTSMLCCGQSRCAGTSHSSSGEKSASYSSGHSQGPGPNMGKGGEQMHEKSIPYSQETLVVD
Nature of the assay: cell-based or functional assay.

Assay [2] has as its target T1, human APJ (apelin receptor). Nature of the assay: FACS on CHO-DHFR-hAPJ cells, antibody at 500 nM and 4 nM, blank CHO-DHFR- cells as negative control. The protocol:
PBS containing EDTA was used to detach and collect 10⁵ CHO-DHFR-hAPJ cells into 1.5 mL EP tubes. The supernatant was removed after centrifugation. The negative control sample was resuspended with a FACS loading buffer (PBS, 2% FBS). For the positive control, 200 μL antibody supernatant with certain concentration was added to resuspend cells and then incubated at room temperature; the cells were then centrifuged at 1500 rpm to remove the supernatant, washed with a FACS loading buffer and centrifuged again. The cells were resuspended followed by addition (200 μL/well) of a FITC labeled goat anti-mouse fluorescent secondary antibody at 1:50 dilution and incubated at room temperature for 30 min in the dark. Supernatant was removed after centrifugation, cells were washed with FACS loading buffer, centrifuged again and resuspended with the loading buffer for analysis.

B1: fusion protein of hAPJ antibody L5H5 and Linker2-Elabela-11 (protein, not shown: a dimerising Fc or GST; large carriers)
heavy (part 1 of 2): EIQLVESGGGLVKPGGSLRLSCAASGFTFSSYAMSWVRQAPGKGLEWVASISSGGSIYLPDSLKGRFTISRDNAKNSLYLQMNSLRAEDTAVYYCTRGRGNSSAWFAYWGQGTLVTVSS
heavy (part 2 of 2): GGGGSGGGGSCMPLHSRVPFP
light: DVLMTQSPLSLPVTLGQPASISCRSDQSLVHRTGNTHLDWYQQRPGQSPRLLIYKVSNRFSGVPDRFSGSGSGTDFTLKISRVEAEDVGVYYCFQASHIPFTFGQGTKVEIKR
As to B1, the EC50, reporter gene assay, activation of Elabela/APJ signaling pathway in assay [1] stood at 3.61 nM.

B2: fusion protein of hAPJ antibody L5H5 and Linker2-EA4 (protein, not shown: a dimerising Fc or GST; large carriers)
heavy (part 1 of 2): B1 heavy (part 1 of 2)
heavy (part 2 of 2): GGGGSGGGGSQRRCLSHKGPMPF
light: B1 light
B2 returned an EC50, reporter gene assay, activation of Elabela/APJ signaling pathway in assay [1] of 5.4 nM.

B3: fusion protein of hAPJ antibody L5H5 and Linker2-EA5 (protein, not shown: a dimerising Fc or GST; large carriers)
heavy (part 1 of 2): B1 heavy (part 1 of 2)
heavy (part 2 of 2): GGGGSGGGGSQRRCMPLHSRVPAP
light: B1 light
In assay [1], B3 gave an EC50, reporter gene assay, activation of Elabela/APJ signaling pathway of 2.55 nM.

B4: fusion protein of hAPJ antibody L5H5 and Linker2-EA3 (protein, not shown: a dimerising Fc or GST; large carriers)
heavy (part 1 of 2): B1 heavy (part 1 of 2)
heavy (part 2 of 2): GGGGSGGGGSQRRCMPLHSRVPMPF
light: B1 light
B4 returned an EC50, reporter gene assay, activation of Elabela/APJ signaling pathway in assay [1] of 20.3 nM.

B5: fusion protein of hAPJ antibody L5H5 and Linker2-EA1 (protein, not shown: a dimerising Fc or GST; large carriers)
heavy (part 1 of 2): B1 heavy (part 1 of 2)
heavy (part 2 of 2): GGGGSGGGGSQRPRLHSRVPFP
light: B1 light
In turn, B5 returned an EC50, reporter gene assay, activation of Elabela/APJ signaling pathway in assay [1] of 4.95 nM.

B6: hAPJ antibody L4H4 (antibody, V domains shown)
VH: EIKLVESGGGLVKPRGSLKLSCAASGFTFSSYAMSWVRQTPEKRLEWVASISSGGSIYLPDSLKGRFTISRDNAWNILYLQMNSLKSEDTAMYYCTRGRGNSSAWFAYWGQGTLVTVSA
VL: B1 light with S7T, T14S, Q17D, P18Q, Q42L, R44K, R50K, V88L, Q105S, V109L
notes: also called mouse ascites antibody L4H4
Take B6: the binding result in assay [2] is “binds”.

B7: fusion protein of hAPJ antibody L5H5 and Linker2-EA2 (protein, not shown: a dimerising Fc or GST; large carriers)
heavy (part 1 of 2): B1 heavy (part 1 of 2)
heavy (part 2 of 2): GGGGSGGGGSQRPRLSHKGPFP
light: B1 light
With B7, the EC50, reporter gene assay, activation of Elabela/APJ signaling pathway in assay [1] turned out to be 2.16 nM.

B8: hAPJ antibody L1H1 (antibody, V domains shown)
VH: EVQLIETGGGLVQPTGSLQLSCAASGFPFNINAMNWVRQAPGKGLEWVARIRSKSNNYATYYADSVKDRFTISRDDSQSILYLQMNNLKTEDSAMYFCVRGPYLYAMDYWGQGTSVTVSS
VL: DIQMNQSPSSLSASLGDTITITCHASQNIHVWLSWYQQKPGNIPKLLIYKASNLHTGVPSRFSGSGSGTGFTLTISSLQPEDIATYYCQQGHSYPLTFGGGTKLEIKR
notes: also called mouse ascites antibody L1H1
For the molecule B8, in assay [2], the binding result was “binds”.
